Columns and labels:
[1] = molecular target: T1, RAG1 central domain mutant CD-DD (Mus musculus, UniProt P15919, D600A/D708A); assay: biolayer interferometry (biotinylated CD-DD on SSA sensors); assay type: binding
T1 construct: central domain (amino acids 528–760) with point mutations D600A/D708A
T1 sequence (P15919 528-760 D600A/D708A): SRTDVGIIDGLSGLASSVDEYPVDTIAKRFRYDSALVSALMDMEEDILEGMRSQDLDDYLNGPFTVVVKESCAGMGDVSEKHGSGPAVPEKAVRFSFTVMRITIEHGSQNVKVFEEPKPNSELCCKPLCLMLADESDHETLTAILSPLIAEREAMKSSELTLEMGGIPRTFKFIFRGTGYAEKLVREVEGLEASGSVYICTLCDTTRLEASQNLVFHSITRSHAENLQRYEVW

RAG1 central domain = molecular target: T2, RAG1 central domain (Mus musculus, UniProt P15919); assay: biolayer interferometry (biotinylated central domain on SSA sensors); also circular dichroism, and inhibition of purified cRAG binding, cleavage and hairpin formation
T2 construct: central domain (amino acids 528–760)
T2 sequence (P15919 528-760): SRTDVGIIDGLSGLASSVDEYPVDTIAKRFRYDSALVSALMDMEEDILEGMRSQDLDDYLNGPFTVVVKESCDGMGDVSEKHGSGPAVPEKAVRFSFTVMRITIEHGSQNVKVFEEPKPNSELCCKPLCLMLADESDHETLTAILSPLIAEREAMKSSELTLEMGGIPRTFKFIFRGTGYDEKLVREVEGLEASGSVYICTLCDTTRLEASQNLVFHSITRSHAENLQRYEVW

MBP-core RAG1 (cRAG1) = molecular target: T3, MBP-core RAG1 (cRAG1) (UniProt P15919 384-1040); assay: EMSA; 5 mM Ca2+; lower band assigned to RAG1 alone; 22.5 mM MOPS-KOH pH 7.0, 20% DMSO, 2.2 mM DTT, 50 mM K-glutamate, 2% glycerol, 100 ng/ml BSA, 5 mM CaCl2, 100 ng RAG, 2 h 25 C, then 0.01% glutaraldehyde fixation 37 C 10 min; 6% native PAGE; settings: protein: recombinant; tags: N-terminal MBP; chain copies: 2; label: 5'-32P on AKN1; 1-nt 5' overhang at each end (49 bp)
T3 sequence: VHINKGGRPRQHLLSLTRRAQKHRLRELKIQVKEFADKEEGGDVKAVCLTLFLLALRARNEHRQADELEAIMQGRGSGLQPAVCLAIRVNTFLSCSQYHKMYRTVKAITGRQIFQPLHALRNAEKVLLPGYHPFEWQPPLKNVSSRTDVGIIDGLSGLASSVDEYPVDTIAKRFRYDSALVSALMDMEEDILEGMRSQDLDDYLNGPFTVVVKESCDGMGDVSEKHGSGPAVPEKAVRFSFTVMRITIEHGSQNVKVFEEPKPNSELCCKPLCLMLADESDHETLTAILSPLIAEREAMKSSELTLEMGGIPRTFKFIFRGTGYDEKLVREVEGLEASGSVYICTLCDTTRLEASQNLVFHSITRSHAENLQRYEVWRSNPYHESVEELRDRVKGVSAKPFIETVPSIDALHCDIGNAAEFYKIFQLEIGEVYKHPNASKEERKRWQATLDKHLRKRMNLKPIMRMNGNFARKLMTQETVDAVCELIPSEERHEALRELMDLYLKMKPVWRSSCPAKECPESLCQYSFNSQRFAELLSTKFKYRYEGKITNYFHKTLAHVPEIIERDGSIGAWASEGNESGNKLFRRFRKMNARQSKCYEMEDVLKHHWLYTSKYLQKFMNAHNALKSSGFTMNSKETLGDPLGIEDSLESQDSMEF

[2] = molecular target: T4, MBP-core RAG1 (cRAG1);MBP-core RAG2 (cRAG2) (;, UniProt P15919;P21784 384-1040;1-383, |); assay: EMSA; 5 mM Ca2+, no inhibitor; 22.5 mM MOPS-KOH pH 7.0, 20% DMSO, 2.2 mM DTT, 50 mM K-glutamate, 2% glycerol, 100 ng/ml BSA, 5 mM CaCl2, 100 ng RAG, 2 h 25 C, then 0.01% glutaraldehyde fixation 37 C 10 min; 6% native PAGE; settings: protein: recombinant;recombinant; tags: N-terminal MBP;N-terminal MBP; chain copies: 2;2; label: 5'-32P on AKN1; 1-nt 5' overhang at each end (49 bp)
T4 sequence 1: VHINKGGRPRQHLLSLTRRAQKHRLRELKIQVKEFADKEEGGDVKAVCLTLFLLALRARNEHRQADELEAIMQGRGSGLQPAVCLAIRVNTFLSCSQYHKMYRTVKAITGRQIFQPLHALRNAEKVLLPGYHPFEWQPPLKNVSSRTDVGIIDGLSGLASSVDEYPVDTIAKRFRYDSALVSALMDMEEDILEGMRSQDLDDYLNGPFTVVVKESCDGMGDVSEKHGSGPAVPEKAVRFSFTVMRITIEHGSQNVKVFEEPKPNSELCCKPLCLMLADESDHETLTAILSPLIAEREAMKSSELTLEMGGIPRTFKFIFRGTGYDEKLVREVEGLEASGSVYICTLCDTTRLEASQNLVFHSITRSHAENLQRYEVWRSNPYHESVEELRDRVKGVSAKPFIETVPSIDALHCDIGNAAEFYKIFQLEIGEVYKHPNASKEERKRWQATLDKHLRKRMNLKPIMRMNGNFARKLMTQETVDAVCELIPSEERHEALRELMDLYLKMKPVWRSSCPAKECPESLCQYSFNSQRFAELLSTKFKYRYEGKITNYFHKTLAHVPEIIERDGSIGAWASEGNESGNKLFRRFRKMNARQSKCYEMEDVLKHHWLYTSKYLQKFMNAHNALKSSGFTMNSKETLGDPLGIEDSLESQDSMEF
T4 sequence 2: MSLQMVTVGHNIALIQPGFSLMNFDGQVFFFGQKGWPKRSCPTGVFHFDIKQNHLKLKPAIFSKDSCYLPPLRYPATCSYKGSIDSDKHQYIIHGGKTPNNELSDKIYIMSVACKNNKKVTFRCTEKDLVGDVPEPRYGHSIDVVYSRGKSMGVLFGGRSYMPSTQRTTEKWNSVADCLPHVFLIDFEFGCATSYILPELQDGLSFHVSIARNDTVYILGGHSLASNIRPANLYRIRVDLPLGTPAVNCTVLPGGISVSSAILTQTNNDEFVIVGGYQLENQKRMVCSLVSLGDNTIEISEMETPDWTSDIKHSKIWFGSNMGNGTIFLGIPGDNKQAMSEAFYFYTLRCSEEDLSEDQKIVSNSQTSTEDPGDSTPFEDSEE

[3] = molecular target: T4, MBP-core RAG1 (cRAG1);MBP-core RAG2 …; assay: EMSA; 5 mM Ca2+, Raltegravir 0.1-0.5 mM (no significant effect); 22.5 mM MOPS-KOH pH 7.0, 20% DMSO, 2.2 mM DTT, 50 mM K-glutamate, 2% glycerol, 100 ng/ml BSA, 5 mM CaCl2, 100 ng RAG, 2 h 25 C, then 0.01% glutaraldehyde fixation 37 C 10 min; 6% native PAGE; settings: protein: recombinant;recombinant; tags: N-terminal MBP;N-terminal MBP; chain copies: 2;2; label: 5'-32P on AKN46; blunt ends, internal 6-nt CCCCCC/CCCCCC bubble flanked by 15 bp each side

Molecule: COc1cc2c(cc1Cc1cccc(Cl)c1F)c(=O)c(C(=O)O)cn2[C@H](CO)C(C)C [EVG, Elvitegravir]
- Kd [1]: 43.7 ± 3 µM
- Kd (RAG1 central domain): 32.5 ± 2.9 µM

B1: 12RSS (AKN1/AKN2) (dsDNA)
DNA 1: GATCAGCTGATAGCTACCACAGTGCTACAGACTGGAACAAAAACCCTGCT
DNA 2: TAGCAGGGTTTTTGTTCCAGTCTGTAGCACTGTGGTAGCTATCAGCTGAT
- binding result (MBP-core RAG1 (cRAG1)): binds
- binding result [2]: binds

B2: (C/C)6 bubble heteroduplex (AKN46/AKN20) (mixed)
DNA 1: GACCTGAGGGCGAGCCCCCCCCGAGTAACTTAACAG
DNA 2: CTGTTAAGTTACTCGCCCCCCGCTCGCCCTCAGGTC
- binding result [3]: binds

Reference: article PMC5520896, “HIV integrase inhibitor, Elvitegravir, impairs RAG functions and inhibits V(D)J recombination” (Cell Death & Disease, 2017)
